Earlier results in publication PMC5580684.
Where “and” joins values, the source holds several entries; their conditions need not be identical. Equal values may be shown once.

Molecular target: DNA polymerase beta (Homo sapiens) (UniProt P06746)

- Kd: 300 µM and 100 µM
Substance: XRCC1 NTD (from UniProt P18887)
